Measured values as given in patent publication US20220162259A1, “PEPTIDE COMPLEX AND PRODUCTION METHOD THEREFOR, AND USE OF SAID PEPTIDE COMPLEX” (KANEKA CORPORATION, priority 2019, published 2022).
Numbered stars: 1 amine (or outer) side, 2 acyl side, 3 side chain; on linkers, the order of the positions; unused ones are H or OH. Bridge positions count the residues as written; N and C are the ends. Square brackets hold non-standard residues; d marks the D form. Ends that are not written are not given here. Peptide text beside a SMILES is read from it. * marks the point of attachment. X1 = NC(N)=NCCNC(=O)CCOCC(COCCC(=O)NCCN=C(N)N)(COCCC(=O)NCCN=C(N)N)NC(=O)CON=C(C[*:1])C[*:2]; FITC = O=C1OC2(c3ccc(O)cc3Oc3cc(O)ccc32)c2ccc(NC(=S)*)cc21; Ahx = NCCCCCC(=O)O

Test system: HeLa cells
Experiment: Evaluation of cell-membrane permeability (flow cytometry of FITC-labelled peptide complexes)
Format: cell-based, Human
Conditions: for Mode of fluorescence intensity, 0 hour of culture / Mode of fluorescence intensity, 1 hour of culture: 2 μM peptide complex, flow cytometer; for Mode of fluorescence intensity, 0 hour of culture: living (propidium iodide-negative) cells; for Mode of fluorescence intensity, 1 hour of culture: 37° C., 5% CO2, living (propidium iodide-negative) cells; for Level of cell-membrane permeation compared with Comparative Example 1: at 1 hour of culture, versus peptide complex of Comparative Example 1
Method: HeLa cells (Human cervix adenocarcinoma cells) were cultured for 1 hour in a cell culture containing 2 μM of the peptide complex synthesized in Example 1 or 2 or Comparative Example 1 under conditions of 5% (v/v) CO2 and 37° C. For culturing the HeLa cells, FluoroBrite D-MEM (obtained from ThermoFisher Co.) (supplemented with 10% (v/v) FCS (fetal calf serum) and 10% (v/v) GlutaMax (obtained from ThermoFisher Co.)) was used.
Next, the surfaces of the cells were washed with D-PBS (−) (supplemented with heparin (20 units/mL)), followed by recovery of the cells. The cells were suspended in D-PBS(−) (supplemented with 0.5% (v/v) BSA (bovine serum albumin), 200 mM EDTA (ethylenediaminetetraacetic acid), and 0.2% (v/v) propidium iodide (obtained from Sigma-Aldrich Co.)). A flow cytometer (BD FACS AriaIII) was used to measure fluorescence intensity. Upon flow cytometry analysis, the mode of fluorescence intensity was calculated for a population of living cells excluding dead cells that were propidium iodide-positive. As a control, dimethyl sulfoxide (DMSO) not containing the peptide complex was tested in the same manner.

Compound | Mode of fluorescence intensity, 0 hour of culture | Mode of fluorescence intensity, 1 hour of culture | Level of cell-membrane permeation compared with Comparative Example 1
CC[C@H](C)[C@@H]1NC(=O)[C@H](Cc2ccc(O)cc2)NC(=O)[C@H](CC(C)C)NC(=O)[C@H](CCSC)NC(=O)[C@@H](NC(=O)CCCCCNC(=S)Nc2ccc3c(c2)C(=O)OC32c3ccc(O)cc3Oc3cc(O)ccc32)CSCC(=NOCC(=O)NC(COCCC(=O)NCCN=C(N)N)(COCCC(=O)NCCN=C(N)N)COCCC(=O)NCCN=C(N)N)CSC[C@@H](C(N)=O)NC(=O)CNC(=O)[C@H](C(C)C)NC(=O)[C@H](CO)NC(=O)[C@H](Cc2ccccc2)NC(=O)[C@H](Cc2ccc(O)cc2)NC(=O)[C@@H]2CCCN2C(=O)[C@H](C(C)C)NC1=O [Comparative Example 1, reference compound] ({FITC-Ahx}-CMLYIVPYFSVGC-NH2; linker 1-13 via X1) | 66.6 | 412 | –
Example 1: FITC-labelled cyclic peptide CMLYIVPYFSVGC with cell-membrane-permeability-imparting group G6 (two dendritic units, six guanidino groups) bound by oxime ligation ([Ahx]CMLYIVPYFSVGC-NH2; not fully specified (bridges); numbers in words are those of the source; also: cyclic, mode not given here, FITC label, place not given here, G6 guanidino dendron bound by oxime ligation, place not given here) | 60 | 730 | higher levels of cell-membrane permeation
Example 2: FITC-labelled cyclic peptide CMLYIVPYFSVGC with cell-membrane-permeability-imparting group G9 (three dendritic units, nine guanidino groups) bound by oxime ligation (not fully specified (N-terminus, C-terminus, bridges); also: cyclic, mode not given here, FITC label, place not given here, G9 guanidino dendron bound by oxime ligation, place not given here) | 65.8 | 877 | higher levels of cell-membrane permeation
